Measured values: the FLAb antibody collection (doi:10.7554/elife.23156)

B1: scFv; the commonest letter at each place (parent)
chain 1: EVKLDETGGGLVQPGRPMKLSCVASGFTFSDYWMNWVRQSPEKGLEWVAQIRNKPYNYETYYSDSVKGRFTISRDDSKSSVYLQMNNLRVEDMGIYYCTGSYYGMDYWGQGTSVTVS
chain 2: DVVMTQTPLSLPVSLGDQASISCRSSQSLVHSNGNTYLRWYLQKPGQSPKVLIYKVSNRFSGVPDRFSGSGSGTDFTLKISRVEAEDLGVYFCSQSTHVPWTFGGGTKLEIK

What was measured:
fluorescein = variants of: B1; assay: Kd (Tite-Seq); conditions: with fluorescein; format: scFv 4-4-20, heavy + light
[1] = variants of: B1; assay: yeast surface expression (ratio to wild type); higher = more expressed; conditions: format: scFv 4-4-20, heavy + light

| Variant | Kd (fluorescein) [µM] | yeast surface expression [1] |
| --- | --- | --- |
| chain 1 S101C Y107G | ≥ 10 | 0.245 |
| chain 1 D31S W36I | ≥ 10 | 0.724 |
| chain 1 D31E M34N | ≥ 10 | 0.61 |
| chain 1 D106A W108M | ≥ 10 | 0.713 |
| chain 1 D31A W33I | ≥ 10 | 0.872 |
| chain 1 Y103E W108D | ≥ 10 | 0.473 |
| chain 1 S101E W108H | ≥ 10 | 0.374 |
| chain 1 S101E W108G | ≥ 10 | 0.368 |
| chain 1 Y103C G104H | 2.01 | 0.403 |
| chain 1 S30R V37M | ≤ 0.000316 | 1.02 |
| chain 1 G100S D106E | 0.0534 | 1.15 |
| chain 1 S30I V37C | 0.00135 | 0.464 |
| chain 1 D31N Y32L | 0.00546 | 0.878 |
| chain 1 Y32D W33E | ≥ 10 | 0.525 |
| chain 1 W108S G109N | ≥ 10 | 0.413 |
| chain 1 D31V W33K | ≥ 10 | 0.795 |
| chain 1 Y102F G104H | ≥ 10 | 0.927 |
| chain 1 S101D Y107E | ≥ 10 | 1.03 |
| chain 1 Y107H W108T | 0.000989 | 0.924 |
| chain 1 Y102K Y103A D106W | ≥ 10 | 0.439 |
| chain 1 T28G F29R W36P | ≥ 10 | 0.146 |
| chain 1 G104Q Y107V | ≥ 10 | 0.941 |
| chain 1 S30G M34H | 5.66 | 0.659 |

| Variant | Kd (fluorescein) [µM] | yeast surface expression [1] |
| --- | --- | --- |
| chain 1 G100N Y102D G109M | ≥ 10 | 0.159 |
| chain 1 S101W M105Q | ≥ 10 | 0.517 |
| chain 1 D31R M34S | ≥ 10 | 0.507 |
| chain 1 F29G W33K | ≥ 10 | 0.65 |
| chain 1 S30R D31N W36A | ≥ 10 | 0.32 |
| chain 1 Y32T N35P | ≥ 10 | 0.612 |
| chain 1 N35K V37M | ≥ 10 | 0.48 |
| chain 1 Y102K Y103L G104F | ≥ 10 | 0.545 |
| chain 1 T28P W36P | ≥ 10 | 0.295 |
| chain 1 Y32R W33H W36S | ≥ 10 | 0.723 |
| chain 1 F29A W36A | ≥ 10 | 0.822 |
| chain 1 Y102Q Y103T | ≥ 10 | 1.05 |
| chain 1 M34E W36M | ≥ 10 | 0.428 |
| chain 1 Y32L W36Q | ≥ 10 | 0.875 |
| chain 1 D31T M34E | 0.0692 | 0.635 |
| chain 1 D31H M34Q | ≥ 10 | 0.268 |
| chain 1 W108D G109Y | ≥ 10 | 0.271 |
| chain 1 F29N V37G | ≥ 10 | 0.135 |
| chain 1 Y32V V37L | ≥ 10 | 0.677 |
| chain 1 Y107W | 0.000846 | 1.11 |
| chain 1 Y32W W33Q | ≥ 10 | 0.886 |
| chain 1 Y102H G104N M105S | ≥ 10 | 1.54 |
| chain 1 F29M D31I | ≥ 10 | 0.518 |

| Variant | Kd (fluorescein) [µM] | yeast surface expression [1] |
| --- | --- | --- |
| chain 1 G104I W108D | ≥ 10 | 0.236 |
| chain 1 Y32H N35Q | ≥ 10 | 0.811 |
| chain 1 S101L M105L | ≥ 10 | 0.334 |
| chain 1 S101L Y103R | ≥ 10 | 0.702 |
| chain 1 G100K | ≥ 10 | 0.395 |
| chain 1 Y102E D106M | ≥ 10 | 0.531 |
| chain 1 G100L G109S | 9.5 | 0.566 |
| chain 1 G104E M105V | ≥ 10 | 0.886 |
| chain 1 Y32S N35G V37K | ≥ 10 | 0.649 |
| chain 1 S30H D31I | ≥ 10 | 0.573 |
| chain 1 M34K W36F | ≥ 10 | 1.23 |
| chain 1 Y103E D106P | ≥ 10 | 0.413 |
| chain 1 G104R Y107W | ≥ 10 | 0.257 |
| chain 1 G104Q D106K | ≥ 10 | 0.274 |
| chain 1 G100V M105S | ≥ 10 | 0.855 |
| chain 1 M105I Y107S | ≥ 10 | 0.853 |
| chain 1 S30K V37A | 0.0272 | 0.745 |
| chain 1 M105T Y107C | ≥ 10 | 0.675 |
| chain 1 D31T W33N | ≥ 10 | 0.661 |
| chain 1 S101N Y107M | ≥ 10 | 0.616 |
| chain 1 F29W M34W | ≥ 10 | 0.913 |
| chain 1 Y103E G109I | ≥ 10 | 0.277 |
| chain 1 G100L Y102W | ≥ 10 | 0.497 |

| Variant | Kd (fluorescein) [µM] | yeast surface expression [1] |
| --- | --- | --- |
| chain 1 G100E S101V | ≥ 10 | 0.225 |
| chain 1 Y102E Y103I | ≥ 10 | 0.862 |
| chain 1 F29Y M34Q V37M | 4.37 | 0.485 |
| chain 1 F29A V37I | 0.0851 | 0.834 |
| chain 1 F29A V37P | ≥ 10 | 0.153 |
| chain 1 Y32T M34E | ≥ 10 | 0.451 |
| chain 1 G100T M105G | ≥ 10 | 0.878 |
| chain 1 Y102M Y103T | ≥ 10 | 0.766 |
| chain 1 S101I M105V | ≥ 10 | 0.468 |
| chain 1 T28I Y32S | 2.23 | 0.842 |
| chain 1 W33M M34P | ≥ 10 | 0.576 |
| chain 1 G104K G109F | ≥ 10 | 0.282 |
| chain 1 D31V Y32P | ≥ 10 | 0.759 |
| chain 1 G100N G109R | ≥ 10 | 0.283 |
| chain 1 F29I Y32K | 0.00226 | 1.07 |
| chain 1 W36D | ≥ 10 | 0.512 |
| chain 1 G104T W108A | ≥ 10 | 0.326 |
| chain 1 S101V | ≥ 10 | 0.496 |
| chain 1 S101L | ≥ 10 | 0.497 |
| chain 1 M34C V37F | ≥ 10 | 0.777 |
| chain 1 W33M V37E | 0.0657 | 0.701 |
| chain 1 T28C Y32P | ≥ 10 | 0.707 |
| chain 1 F29C N35K | ≥ 10 | 1.18 |

| Variant | Kd (fluorescein) [µM] | yeast surface expression [1] |
| --- | --- | --- |
| chain 1 W33R M34D | ≥ 10 | 0.356 |
| chain 1 D31C | 0.0747 | 0.608 |
| chain 1 D31M | 0.00194 | 0.58 |
| chain 1 Y103K D106M | ≥ 10 | 0.716 |
| chain 1 D31L W36H | ≥ 10 | 0.82 |
| chain 1 T28S D31C | 0.0767 | 0.771 |
| chain 1 S101M Y103D | ≥ 10 | 0.917 |
| chain 1 Y32M | 0.972 | 1.03 |
| chain 1 Y32C M34K | ≥ 10 | 1.04 |
| chain 1 Y32A M34E V37C | ≥ 10 | 0.299 |
| chain 1 S101T Y103Q G109I | ≥ 10 | 0.258 |
| chain 1 F29S W36Q | ≥ 10 | 0.549 |
| chain 1 D31S M34R | ≥ 10 | 0.424 |
| chain 1 G100P Y102W | ≥ 10 | 0.682 |
| chain 1 Y107L W108L | 0.000939 | 0.676 |
| chain 1 T28W N35A | ≥ 10 | 0.862 |
| chain 1 G104D W108T | ≥ 10 | 0.417 |
| chain 1 D31R Y32I | ≥ 10 | 0.818 |
| chain 1 M105P G109T | ≥ 10 | 0.291 |
| chain 1 S30T N35Q | ≥ 10 | 0.831 |
| chain 1 S30P D31S N35P | ≥ 10 | 0.757 |
| chain 1 Y102K Y107K | 6.96 | 0.846 |
| chain 1 D106T W108Q | ≥ 10 | 0.5 |
